Several values for one entry are separate records, joined by “and”; a condition that tells them apart may be missing. Equal values may be shown once. Values belong to the substance of their own block, whether it stands above or below them.
Legend:
Experiment in all cases: anti-Flag IP-MS, mES nuclear extract
Lmo7 (mouse) = Lmo7 (mouse) (UniProt E9PYF4)
Dnajb6 (mouse) = Dnajb6 (mouse) (UniProt O54946)
Psmc5 (mouse) = Psmc5 (mouse) (UniProt P62196)
Eno2 (mouse) = Eno2 (mouse) (UniProt P17183)
Sfrs17b (mouse) = Sfrs17b (mouse) (UniProt A2A3V1)
Spnb2 (mouse) = Spnb2 (mouse) (UniProt Q62261)
Aars (mouse) = Aars (mouse) (UniProt Q8BGQ7)
Smarca1 (mouse) = Smarca1 (mouse) (UniProt Q6PGB8)
Copa (mouse) = Copa (mouse) (UniProt Q8CIE6)
Smc2 (mouse) = Smc2 (mouse) (UniProt Q8CG48)
Cnot1 (mouse) = Cnot1 (mouse) (UniProt Q6ZQ08)
Rfc2 (mouse) = Rfc2 (mouse) (UniProt Q9WUK4)
Ahdc1 (mouse) = Ahdc1 (mouse) (UniProt Q6PAL7)
Tip2 (mouse) = target: Tip2 (mouse)
Ranbp2 (mouse) = Ranbp2 (mouse) (UniProt Q9ERU9)
Racgap1 (mouse) = Racgap1 (mouse) (UniProt Q9WVM1)
Hspd1 (mouse) = Hspd1 (mouse) (UniProt P63038)
Hspd1 (mouse), sequence (P63038 27-573 limits assumed): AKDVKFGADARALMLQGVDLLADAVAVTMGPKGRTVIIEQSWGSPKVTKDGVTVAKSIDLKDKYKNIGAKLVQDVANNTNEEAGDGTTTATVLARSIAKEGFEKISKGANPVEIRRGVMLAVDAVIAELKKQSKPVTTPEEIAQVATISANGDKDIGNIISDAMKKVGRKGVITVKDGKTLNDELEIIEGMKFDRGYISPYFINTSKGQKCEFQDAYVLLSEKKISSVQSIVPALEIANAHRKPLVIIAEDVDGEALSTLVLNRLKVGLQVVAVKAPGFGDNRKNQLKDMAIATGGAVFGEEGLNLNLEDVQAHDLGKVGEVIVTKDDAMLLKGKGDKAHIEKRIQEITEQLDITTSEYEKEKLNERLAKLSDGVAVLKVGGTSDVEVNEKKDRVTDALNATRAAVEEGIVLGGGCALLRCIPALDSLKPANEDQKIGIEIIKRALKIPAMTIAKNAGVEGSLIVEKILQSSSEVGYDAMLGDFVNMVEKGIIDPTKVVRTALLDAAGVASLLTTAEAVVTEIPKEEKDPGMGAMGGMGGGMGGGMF

Canx (mouse) = Canx (mouse) (UniProt P35564)
Canx (mouse), sequence (P35564 21-591 limits assumed): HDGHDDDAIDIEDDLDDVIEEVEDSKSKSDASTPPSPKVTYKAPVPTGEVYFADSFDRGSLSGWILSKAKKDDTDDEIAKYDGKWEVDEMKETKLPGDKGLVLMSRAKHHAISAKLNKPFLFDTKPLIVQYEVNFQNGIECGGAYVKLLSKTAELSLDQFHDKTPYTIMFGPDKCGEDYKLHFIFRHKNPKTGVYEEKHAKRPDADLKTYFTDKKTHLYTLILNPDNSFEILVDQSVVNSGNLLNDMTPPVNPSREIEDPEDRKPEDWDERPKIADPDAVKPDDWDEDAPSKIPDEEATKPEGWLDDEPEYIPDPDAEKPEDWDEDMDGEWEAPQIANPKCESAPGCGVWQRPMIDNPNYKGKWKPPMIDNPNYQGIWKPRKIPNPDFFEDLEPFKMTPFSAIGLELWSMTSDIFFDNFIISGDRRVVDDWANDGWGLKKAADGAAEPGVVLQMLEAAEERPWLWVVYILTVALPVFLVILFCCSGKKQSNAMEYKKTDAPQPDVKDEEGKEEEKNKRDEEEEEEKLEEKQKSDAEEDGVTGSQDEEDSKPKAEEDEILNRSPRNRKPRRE

Rangap1 (mouse) = Rangap1 (mouse) (UniProt P46061)
Rangap1 (mouse), sequence (P46061 2-589 limits assumed): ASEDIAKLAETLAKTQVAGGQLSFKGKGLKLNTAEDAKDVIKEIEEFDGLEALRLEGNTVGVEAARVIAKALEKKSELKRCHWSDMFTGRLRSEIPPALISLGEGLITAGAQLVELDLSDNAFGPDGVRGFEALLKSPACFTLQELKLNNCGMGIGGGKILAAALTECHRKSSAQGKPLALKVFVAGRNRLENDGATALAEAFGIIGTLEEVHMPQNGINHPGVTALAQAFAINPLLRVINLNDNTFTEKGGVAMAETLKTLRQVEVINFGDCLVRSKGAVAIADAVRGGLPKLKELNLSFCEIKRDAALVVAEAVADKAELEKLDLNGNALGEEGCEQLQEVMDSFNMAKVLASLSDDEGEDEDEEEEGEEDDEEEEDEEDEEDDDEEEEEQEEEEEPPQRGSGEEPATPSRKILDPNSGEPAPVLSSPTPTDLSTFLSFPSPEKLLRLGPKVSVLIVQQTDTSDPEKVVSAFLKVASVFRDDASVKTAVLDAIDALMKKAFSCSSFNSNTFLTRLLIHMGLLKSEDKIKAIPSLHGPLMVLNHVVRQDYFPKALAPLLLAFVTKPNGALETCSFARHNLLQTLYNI

Ncapg (mouse) = Ncapg (mouse) (UniProt E9PWG6)
Abce1 (mouse) = Abce1 (mouse) (UniProt P61222)
Hells (mouse) = Hells (mouse) (UniProt Q60848)
Gart (mouse) = Gart (mouse) (UniProt Q64737)
Pkm2 (mouse) = Pkm2 (mouse) (UniProt P52480)
Gcn1l1 (mouse) = Gcn1l1 (mouse) (UniProt E9PVA8)
Nsd1 (mouse) = Nsd1 (mouse) (UniProt O88491)
Nsd1 (mouse), sequence (O88491 whole entry): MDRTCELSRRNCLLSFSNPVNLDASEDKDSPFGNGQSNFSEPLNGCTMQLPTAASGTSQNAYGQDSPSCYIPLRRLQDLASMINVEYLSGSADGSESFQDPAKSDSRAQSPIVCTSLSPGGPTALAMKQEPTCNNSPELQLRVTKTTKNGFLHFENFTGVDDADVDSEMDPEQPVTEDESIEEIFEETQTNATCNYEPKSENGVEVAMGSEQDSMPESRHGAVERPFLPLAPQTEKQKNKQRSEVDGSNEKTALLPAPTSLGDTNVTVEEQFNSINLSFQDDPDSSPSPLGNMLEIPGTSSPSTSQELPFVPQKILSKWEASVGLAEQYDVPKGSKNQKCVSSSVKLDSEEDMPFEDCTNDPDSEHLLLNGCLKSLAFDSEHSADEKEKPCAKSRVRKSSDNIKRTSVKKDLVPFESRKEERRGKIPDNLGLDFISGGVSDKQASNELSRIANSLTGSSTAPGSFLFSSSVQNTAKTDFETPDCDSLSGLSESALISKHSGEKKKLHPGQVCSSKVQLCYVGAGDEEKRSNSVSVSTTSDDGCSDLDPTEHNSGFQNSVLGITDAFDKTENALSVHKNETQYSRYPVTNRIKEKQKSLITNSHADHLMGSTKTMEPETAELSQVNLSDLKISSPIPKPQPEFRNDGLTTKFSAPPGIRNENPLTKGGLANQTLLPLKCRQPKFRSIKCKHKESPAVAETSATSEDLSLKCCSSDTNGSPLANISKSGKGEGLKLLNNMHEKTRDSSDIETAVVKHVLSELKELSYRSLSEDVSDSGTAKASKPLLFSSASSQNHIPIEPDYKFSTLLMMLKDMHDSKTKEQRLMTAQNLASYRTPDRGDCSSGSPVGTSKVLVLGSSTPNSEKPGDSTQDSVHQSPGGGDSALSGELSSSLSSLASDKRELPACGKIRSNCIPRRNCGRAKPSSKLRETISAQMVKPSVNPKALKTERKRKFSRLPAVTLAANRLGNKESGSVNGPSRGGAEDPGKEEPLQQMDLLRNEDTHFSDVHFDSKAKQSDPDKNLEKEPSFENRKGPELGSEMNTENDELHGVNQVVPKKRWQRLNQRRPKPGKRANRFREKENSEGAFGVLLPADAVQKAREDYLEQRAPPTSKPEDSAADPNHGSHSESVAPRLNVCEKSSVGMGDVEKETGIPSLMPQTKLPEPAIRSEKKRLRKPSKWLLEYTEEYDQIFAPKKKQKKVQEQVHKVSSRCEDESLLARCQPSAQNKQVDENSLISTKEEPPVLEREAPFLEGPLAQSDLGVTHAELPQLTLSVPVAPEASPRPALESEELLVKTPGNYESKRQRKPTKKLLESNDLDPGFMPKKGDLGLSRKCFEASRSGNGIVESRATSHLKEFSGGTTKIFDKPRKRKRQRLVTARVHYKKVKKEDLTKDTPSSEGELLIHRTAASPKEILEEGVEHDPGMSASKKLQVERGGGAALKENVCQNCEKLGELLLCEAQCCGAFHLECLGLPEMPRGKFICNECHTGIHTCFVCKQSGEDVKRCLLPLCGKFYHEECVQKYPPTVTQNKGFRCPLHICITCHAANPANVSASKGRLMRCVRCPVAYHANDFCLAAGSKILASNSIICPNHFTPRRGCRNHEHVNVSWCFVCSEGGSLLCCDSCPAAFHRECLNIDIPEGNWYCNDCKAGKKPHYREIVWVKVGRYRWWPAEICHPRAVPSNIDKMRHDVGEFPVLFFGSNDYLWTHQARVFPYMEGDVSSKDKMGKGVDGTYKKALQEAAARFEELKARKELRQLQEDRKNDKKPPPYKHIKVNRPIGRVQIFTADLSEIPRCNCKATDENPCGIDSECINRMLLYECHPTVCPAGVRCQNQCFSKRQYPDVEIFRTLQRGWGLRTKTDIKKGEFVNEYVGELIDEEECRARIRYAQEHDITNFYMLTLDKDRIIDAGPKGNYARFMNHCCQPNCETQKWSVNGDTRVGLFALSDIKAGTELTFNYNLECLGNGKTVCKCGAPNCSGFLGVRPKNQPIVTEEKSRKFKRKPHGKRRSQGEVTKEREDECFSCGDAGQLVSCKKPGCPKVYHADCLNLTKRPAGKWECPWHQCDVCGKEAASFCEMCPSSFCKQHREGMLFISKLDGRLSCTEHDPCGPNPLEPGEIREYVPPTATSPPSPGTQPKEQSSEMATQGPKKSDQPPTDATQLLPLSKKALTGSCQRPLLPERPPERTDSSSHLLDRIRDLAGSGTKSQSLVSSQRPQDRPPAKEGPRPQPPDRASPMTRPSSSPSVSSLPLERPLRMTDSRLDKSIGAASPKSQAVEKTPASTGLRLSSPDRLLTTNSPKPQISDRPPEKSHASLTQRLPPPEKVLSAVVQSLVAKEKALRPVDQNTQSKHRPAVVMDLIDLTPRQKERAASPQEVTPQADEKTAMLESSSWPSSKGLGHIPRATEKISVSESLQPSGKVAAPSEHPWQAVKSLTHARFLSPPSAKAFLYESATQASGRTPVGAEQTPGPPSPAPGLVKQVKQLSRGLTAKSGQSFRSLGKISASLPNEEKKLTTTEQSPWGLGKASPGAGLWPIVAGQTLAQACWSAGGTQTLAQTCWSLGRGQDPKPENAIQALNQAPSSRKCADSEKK

Cse1l (mouse) = Cse1l (mouse) (UniProt Q9ERK4)
Ogt (mouse) = Ogt (mouse) (UniProt Q8CGY8)
Tmpo (mouse) = target: Tmpo (mouse)
Dnmt3a (mouse) = Dnmt3a (mouse) (UniProt O88508)
Psmd2 (mouse) = Psmd2 (mouse) (UniProt Q8VDM4)
Kif23 (mouse) = Kif23 (mouse) (UniProt E9Q5G3)

Dnajb6 (mouse), sequence (O54946 whole entry): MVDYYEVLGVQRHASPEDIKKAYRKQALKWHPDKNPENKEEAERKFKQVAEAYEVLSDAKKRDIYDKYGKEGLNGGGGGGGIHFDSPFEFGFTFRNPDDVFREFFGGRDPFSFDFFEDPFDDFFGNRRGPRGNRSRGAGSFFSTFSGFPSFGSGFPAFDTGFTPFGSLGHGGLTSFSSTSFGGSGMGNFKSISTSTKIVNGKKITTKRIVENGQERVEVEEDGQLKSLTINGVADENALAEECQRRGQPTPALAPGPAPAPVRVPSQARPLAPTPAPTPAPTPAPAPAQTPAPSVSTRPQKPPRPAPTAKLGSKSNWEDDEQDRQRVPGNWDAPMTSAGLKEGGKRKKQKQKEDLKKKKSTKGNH
Eno2 (mouse), sequence (P17183 2-434 limits assumed): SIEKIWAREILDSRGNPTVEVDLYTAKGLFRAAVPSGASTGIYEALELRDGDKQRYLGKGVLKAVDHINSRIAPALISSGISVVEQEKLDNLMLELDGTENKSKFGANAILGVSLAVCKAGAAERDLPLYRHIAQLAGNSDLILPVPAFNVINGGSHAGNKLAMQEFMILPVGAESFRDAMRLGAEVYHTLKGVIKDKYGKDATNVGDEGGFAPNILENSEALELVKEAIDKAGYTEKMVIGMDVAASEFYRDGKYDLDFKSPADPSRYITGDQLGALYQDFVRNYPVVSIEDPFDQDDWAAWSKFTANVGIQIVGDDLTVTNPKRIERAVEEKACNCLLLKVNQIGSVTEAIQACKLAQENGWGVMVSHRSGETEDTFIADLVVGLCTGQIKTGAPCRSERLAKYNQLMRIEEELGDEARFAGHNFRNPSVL

Nucleus peptide (Lmo7 (mouse)): 0 peptides
Nucleus spectra (Lmo7 (mouse)): 0 spectra
Nucleus peptide (Dnajb6 (mouse)): 1 peptides
Nucleus spectra (Dnajb6 (mouse)): 2 spectra
Nucleus peptide (Psmc5 (mouse)): 0 peptides
Nucleus spectra (Psmc5 (mouse)): 0 spectra
Nucleus peptide (Eno2 (mouse)): 1 peptides
Nucleus spectra (Eno2 (mouse)): 2 spectra
Nucleus peptide (Sfrs17b (mouse)): 2 peptides
Nucleus spectra (Sfrs17b (mouse)): 2 spectra
Nucleus peptide (Spnb2 (mouse)): 7 peptides
Nucleus spectra (Spnb2 (mouse)): 11 spectra
Nucleus peptide (Aars (mouse)): 3 peptides
Nucleus spectra (Aars (mouse)): 4 spectra
Nucleus peptide (Smarca1 (mouse)): 2 peptides
Nucleus spectra (Smarca1 (mouse)): 3 spectra
Nucleus peptide (Copa (mouse)): 1 peptides
Nucleus spectra (Copa (mouse)): 4 spectra
Nucleus peptide (Smc2 (mouse)): 4 peptides
Nucleus spectra (Smc2 (mouse)): 6 spectra
Nucleus peptide (Cnot1 (mouse)): 3 peptides
Nucleus spectra (Cnot1 (mouse)): 4 spectra
Nucleus peptide (Rfc2 (mouse)): 0 peptides
Nucleus spectra (Rfc2 (mouse)): 0 spectra
Nucleus peptide (Ahdc1 (mouse)): 0 peptides
Nucleus spectra (Ahdc1 (mouse)): 0 spectra
Nucleus peptide (Tip2 (mouse)): 6 peptides
Nucleus spectra (Tip2 (mouse)): 14 spectra
Nucleus peptide (Ranbp2 (mouse)): 8 peptides
Nucleus spectra (Ranbp2 (mouse)): 12 spectra
Nucleus peptide (Racgap1 (mouse)): 3 peptides
Nucleus spectra (Racgap1 (mouse)): 3 spectra
Nucleus peptide (Hspd1 (mouse)): 5 peptides
Nucleus spectra (Hspd1 (mouse)): 11 spectra
Nucleus peptide (Canx (mouse)): 2 peptides
Nucleus spectra (Canx (mouse)): 2 spectra
Nucleus peptide (Rangap1 (mouse)): 0 peptides
Nucleus spectra (Rangap1 (mouse)): 0 spectra
Nucleus peptide (Ncapg (mouse)): 0 peptides
Nucleus spectra (Ncapg (mouse)): 0 spectra
Nucleus peptide (Abce1 (mouse)): 3 peptides
Nucleus spectra (Abce1 (mouse)): 3 spectra
Nucleus peptide (Hells (mouse)): 1 peptides
Nucleus spectra (Hells (mouse)): 1 spectra
Nucleus peptide (Gart (mouse)): 2 peptides
Nucleus spectra (Gart (mouse)): 3 spectra
Nucleus peptide (Pkm2 (mouse)): 1 peptides
Nucleus spectra (Pkm2 (mouse)): 1 spectra
Nucleus peptide (Gcn1l1 (mouse)): 3 peptides
Nucleus spectra (Gcn1l1 (mouse)): 5 spectra
Nucleus peptide (Nsd1 (mouse)): 1 peptides
Nucleus spectra (Nsd1 (mouse)): 2 spectra
Nucleus peptide (Cse1l (mouse)): 0 peptides
Nucleus spectra (Cse1l (mouse)): 0 spectra
Nucleus peptide (Ogt (mouse)): 0 peptides
Nucleus spectra (Ogt (mouse)): 0 spectra
Nucleus peptide (Tmpo (mouse)): 2 peptides
Nucleus spectra (Tmpo (mouse)): 6 spectra
Nucleus peptide (Dnmt3a (mouse)): 0 peptides
Nucleus spectra (Dnmt3a (mouse)): 0 spectra
Nucleus peptide (Psmd2 (mouse)): 1 peptides
Nucleus spectra (Psmd2 (mouse)): 1 spectra
Substance: 2x Flag tag only (control) (peptide)

Nucleus peptide (Dnajb6 (mouse)): 5 peptides
Nucleus spectra (Dnajb6 (mouse)): 17 spectra
Nucleus peptide (Psmc5 (mouse)): 5 peptides
Nucleus spectra (Psmc5 (mouse)): 8 spectra
Nucleus peptide (Eno2 (mouse)): 3 peptides
Nucleus spectra (Eno2 (mouse)): 7 spectra
Nucleus peptide (Sfrs17b (mouse)): 3 peptides
Nucleus spectra (Sfrs17b (mouse)): 8 spectra
Nucleus peptide (Spnb2 (mouse)): 17 peptides
Nucleus spectra (Spnb2 (mouse)): 26 spectra
Nucleus peptide (Aars (mouse)): 10 peptides
Nucleus spectra (Aars (mouse)): 21 spectra
Nucleus peptide (Smarca1 (mouse)): 7 peptides
Nucleus spectra (Smarca1 (mouse)): 14 spectra
Nucleus peptide (Copa (mouse)): 5 peptides
Nucleus spectra (Copa (mouse)): 9 spectra
Nucleus peptide (Smc2 (mouse)): 7 peptides
Nucleus spectra (Smc2 (mouse)): 16 spectra
Nucleus peptide (Cnot1 (mouse)): 6 peptides
Nucleus spectra (Cnot1 (mouse)): 11 spectra
Nucleus peptide (Kif23 (mouse)): 4 peptides and 7 peptides
Nucleus spectra (Kif23 (mouse)): 11 spectra and 18 spectra
Nucleus peptide (Rfc2 (mouse)): 3 peptides
Nucleus spectra (Rfc2 (mouse)): 8 spectra
Nucleus peptide (Ahdc1 (mouse)): 8 peptides
Nucleus spectra (Ahdc1 (mouse)): 15 spectra
Nucleus peptide (Ranbp2 (mouse)): 57 peptides
Nucleus spectra (Ranbp2 (mouse)): 160 spectra
Nucleus peptide (Racgap1 (mouse)): 6 peptides
Nucleus spectra (Racgap1 (mouse)): 7 spectra
Nucleus peptide (Hspd1 (mouse)): 16 peptides
Nucleus spectra (Hspd1 (mouse)): 44 spectra
Nucleus peptide (Canx (mouse)): 7 peptides
Nucleus spectra (Canx (mouse)): 23 spectra
Nucleus peptide (Rangap1 (mouse)): 10 peptides
Nucleus spectra (Rangap1 (mouse)): 29 spectra
Nucleus peptide (Ncapg (mouse)): 4 peptides
Nucleus spectra (Ncapg (mouse)): 9 spectra
Nucleus peptide (Abce1 (mouse)): 7 peptides
Nucleus spectra (Abce1 (mouse)): 11 spectra
Nucleus peptide (Hells (mouse)): 6 peptides
Nucleus spectra (Hells (mouse)): 13 spectra
Nucleus peptide (Gart (mouse)): 5 peptides
Nucleus spectra (Gart (mouse)): 7 spectra
Nucleus peptide (Pkm2 (mouse)): 3 peptides
Nucleus spectra (Pkm2 (mouse)): 3 spectra
Nucleus peptide (Gcn1l1 (mouse)): 14 peptides
Nucleus spectra (Gcn1l1 (mouse)): 24 spectra
Nucleus peptide (Nsd1 (mouse)): 4 peptides
Nucleus spectra (Nsd1 (mouse)): 5 spectra
Nucleus peptide (Cse1l (mouse)): 3 peptides
Nucleus spectra (Cse1l (mouse)): 4 spectra
Nucleus peptide (Ogt (mouse)): 7 peptides
Nucleus spectra (Ogt (mouse)): 12 spectra
Nucleus peptide (Dnmt3a (mouse)): 6 peptides
Nucleus spectra (Dnmt3a (mouse)): 13 spectra
Nucleus peptide (Psmd2 (mouse)): 5 peptides
Nucleus spectra (Psmd2 (mouse)): 12 spectra
Substance: human AID containing two tandem Flag tags (Flag-human AID) (from UniProt Q9GZX7 1-198) (enzyme)

— patent publication US20130011380A1
